{"source": "paper PMC11374805", "biological_target": "peptidase domain (PD) of human ACE2 (human) (UniProt Q9BYF1)", "assay": "BLI", "note": "pKd: −log10 of the molar value.", "data": [{"substance": "RBD (319-541 a.a) of S protein from SARS-CoV-2 Omicron variant BA.2 (domain or fragment)", "values": [{"measurement": "pKd", "value": 7.80}]}]}
